From patent US9217036

Molecular target: full-length mouse PrP, cellular prion protein PrP^c (mouse) (UniProt P04925)
Sequence (P04925 23-230 limits assumed): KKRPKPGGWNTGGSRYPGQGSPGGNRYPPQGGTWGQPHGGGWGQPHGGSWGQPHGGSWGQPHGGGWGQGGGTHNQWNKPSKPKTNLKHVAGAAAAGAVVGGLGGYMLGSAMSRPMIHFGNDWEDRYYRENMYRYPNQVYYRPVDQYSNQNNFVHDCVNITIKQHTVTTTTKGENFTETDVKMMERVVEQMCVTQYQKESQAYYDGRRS

Substance: 6D11 anti-PrP mouse monoclonal antibody
- IC50: 1 nM
